Broadly, the Kd is the equilibrium constant for the complex coming apart. A lower Kd goes with a tighter complex.

The target in experiment [1] is human CEACAM5 (R&D Systems, Inc.), biotinylated (human) (UniProt P06731). Put plainly: SPR (Biacore T200), biotinylated human CEACAM5 captured on chip, Fab as analyte. In general terms: In SPR one partner is held on a chip, and binding of the other changes the refractive index at the surface.
The target is the same in experiment [2]. Put plainly: SPR (Biacore T200), biotinylated human CEACAM5 captured on chip, Fab conjugate as analyte.
For experiment [3], the target named is T1, human CEACAM5 (R&D Systems, Inc.), biotinylated (human, UniProt P06731 35-685, biotinylated with Biotin Labeling Kit-NH2; sites not stated).
T1 construct: Bought protein, biotinylated and captured on the sensor chip with the Biotin CAPture Kit
T1 sequence (looked up): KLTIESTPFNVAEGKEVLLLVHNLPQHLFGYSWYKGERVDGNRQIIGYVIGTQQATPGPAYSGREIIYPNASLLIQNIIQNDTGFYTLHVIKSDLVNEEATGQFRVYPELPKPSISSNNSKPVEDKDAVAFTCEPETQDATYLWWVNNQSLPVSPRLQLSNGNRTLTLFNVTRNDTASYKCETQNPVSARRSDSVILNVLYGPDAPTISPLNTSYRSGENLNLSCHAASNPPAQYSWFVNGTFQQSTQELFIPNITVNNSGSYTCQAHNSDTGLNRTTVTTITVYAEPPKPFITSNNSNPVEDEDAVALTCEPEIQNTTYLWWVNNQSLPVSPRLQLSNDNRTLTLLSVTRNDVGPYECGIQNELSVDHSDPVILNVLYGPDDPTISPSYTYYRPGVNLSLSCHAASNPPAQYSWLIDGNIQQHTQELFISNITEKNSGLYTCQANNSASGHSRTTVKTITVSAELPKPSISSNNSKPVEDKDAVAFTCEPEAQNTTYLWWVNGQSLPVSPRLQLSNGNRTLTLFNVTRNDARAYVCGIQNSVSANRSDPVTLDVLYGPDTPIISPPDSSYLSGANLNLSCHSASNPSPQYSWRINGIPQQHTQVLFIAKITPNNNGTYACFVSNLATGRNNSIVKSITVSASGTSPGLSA
Put plainly: SPR (Biacore T200), biotinylated human CEACAM5 captured on chip, Fab as analyte. The procedure: (§1) The analysis by SPR was conducted using Biacore T200 (GE Healthcare Japan Corp.). 10 μg/mL human CEACAM5 (R&D Systems, Inc.) biotinylated with Biotin CAPture Kit, Series S (GE Healthcare Japan Corp.) and Biotin Labeling Kit-NH₂ (Dojindo Laboratories) was added to the surface of the sensor chip at a flow rate of 5 μL/min for 2 minutes, and immobilized thereonto. PB009-01, PB009-02, M5A-Fab and M5A-Fab-DFO were diluted with HBS-EP+ solution (GE Healthcare Japan Corp.) into 6 series at a 2-fold ratio from 400 nM, and 100 μL each was added to the channel at a flow rate of 50 μL/min. In this measurement system, the dissociation constant (KD) of PB009-01, PB009-02, M5A-Fab or M5A-Fab-DFO for human CEACAM5 was calculated using data analysis software (BIA Evaluation, GE Healthcare Japan Corp.). As a result, as shown in the table given below, the binding activity of M5A-Fab was attenuated by the binding of DFO, whereas the binding activity of PB009-01 was not attenuated by the binding of DFO.

The target of experiment [4] is T1, human CEACAM5 (R&D Systems, Inc.), …. Put plainly: SPR (Biacore T200), biotinylated human CEACAM5 captured on chip, Fab conjugate as analyte. The procedure: In order to measure the detailed binding activity of PB009-02, analysis was conducted by SPR. In this Example, a Fab fragment of M5A (referred to as M5A-Fab), a humanized antibody of T84.66, was used as a comparative Fab fragment. M5A-Fab bound to DFO via a linker (referred to as M5A-Fab-DFO) was prepared by use of the method described in Example 2.
as §1

“Fab fragment of M5A, a humanized antibody of T84.66”: in experiment [1], the Kd turned out to be 0.16 nM.

In turn, M5A-Fab bound to DFO via a linker registered a Kd in experiment [2] of 9.6 nM. This counts as single-digit nanomolar.

B1: anti-human CEACAM5 antibody Fab fragment PB009-01 (Fab, V domains shown)
VH: EVQLVESGGGLVQPGGSLRLSCAASGFNIRDTYMHWVRQAPGKGLEWVARIDPANGNSRYVPKFQGRFTISADTSRNTAYLQMNSLRAEDTAVYYCAPFGYYVSDYAMAYWGQGTLVTVSS
VL: DIQLTQSPSSLSASVGDRVTITCRAGESVDIFGVGFLHWYQQKPGKAPKLLIYRASNLESGIPSRFSGSGSRTDFTLTISSLQPEDFATYYCQQTNEDPYTFGQGTKVEIKR
notes: Humanized and redesigned from mouse anti-human CEACAM5 antibody T84.66
For B1, in experiment [3], the affinity, expressed as Kd, was 0.17 nM.

B2: PB009-02 (Fab fragment PB009-01 bound to DFO via a linker) (Fab, V domains shown)
VH: B1 VH
VL: B1 VL
modifications: DFO bound via linker -C(=S)-NH-(1,4-phenylene)-NH-C(=S)- (from p-SCN-Bn-DFO); at least 3 to 10 DFO ligands per Fab by mass spectrometry; modified residues and their split between the chains not …
notes: Chemical conjugate of PB009-01 with the chelator DFO
B2: the Kd in experiment [4] is 0.61 nM.

These data come from patent US20200123270A1 (Astellas, published 2020).
